Reference: US20250066456A1 (NOVAVAX, published 2025)

Assays:
[1] = biological target: T1, BV2523 (recombinant CoV S glycoprotein, BA.2) (SARS-CoV-2, UniProt P0DTC2 14-1273); experiment: ELISA on coated rS
[2] = biological target: T2, BV2540 (recombinant CoV S glycoprotein, BA.5) (SARS-CoV-2, UniProt P0DTC2 14-1273); experiment: ELISA on coated rS
[3] = biological target: T3, BV2542 (recombinant CoV S glycoprotein, BA.2.12.1) (SARS-CoV-2, UniProt P0DTC2 14-1273); experiment: ELISA on coated rS
[4] = biological target: T4, RBD of a CoV S glycoprotein related to a CoV S glycoprotein from the SARS-CoV-2 omicron strain (SARS-CoV-2 omicron strain); experiment: BLI, RBD-His on Ni-NTA biosensor, antibody analyte
T4 construct: domain: RBD

[5] = biological target: BV2373 (recombinant CoV S glycoprotein, Prototype) (SARS-CoV-2, UniProt P0DTC2 14-1273); experiment: BLI, antibody on anti-mouse Fc biosensor, rS analyte
[6] = biological target: BV2425 (recombinant CoV S glycoprotein, Alpha) (SARS-CoV-2, UniProt P0DTC2 14-1273); experiment: as above
[7] = biological target: BV2438 (recombinant CoV S glycoprotein, Beta) (SARS-CoV-2, UniProt P0DTC2 14-1273); experiment: as above
[8] = biological target: BV2443 (recombinant CoV S glycoprotein, Gamma) (SARS-CoV-2, UniProt P0DTC2 14-1273); experiment: as above
[9] = biological target: BV2465 (recombinant CoV S glycoprotein, Delta) (SARS-CoV-2, UniProt P0DTC2 14-1273); experiment: as above
[10] = biological target: T5, BV2509 (recombinant CoV S glycoprotein, BA.1) (SARS-CoV-2, UniProt P0DTC2 14-1273); experiment: as above
[11] = biological target: T1, BV2523 (recombinant CoV S glycoprotein, …); experiment: as above
[12] = biological target: T2, BV2540 (recombinant CoV S glycoprotein, …); experiment: as above
[13] = biological target: T6, BV2541 (recombinant CoV S glycoprotein, BA.4) (SARS-CoV-2, UniProt P0DTC2 14-1273); experiment: as above
[14] = biological target: T3, BV2542 (recombinant CoV S glycoprotein, …); experiment: as above
[15] = biological target: T7, BV2561 (recombinant CoV S glycoprotein, BA.2.75) (SARS-CoV-2, UniProt P0DTC2 14-1273); experiment: as above
[16] = biological target: T8, BV2562 (recombinant CoV S glycoprotein, BA.4.6) (SARS-CoV-2, UniProt P0DTC2 14-1273); experiment: as above
[17] = biological target: T5, BV2509 (recombinant CoV S glycoprotein, …); experiment: hACE2 receptor inhibition ELISA on coated rS; competitor hACE2-His
[18] = biological target: T1, BV2523 (recombinant CoV S glycoprotein, …); experiment: as above
[19] = biological target: T2, BV2540 (recombinant CoV S glycoprotein, …); experiment: as above
[20] = biological target: T6, BV2541 (recombinant CoV S glycoprotein, …); experiment: as above
[21] = biological target: T3, BV2542 (recombinant CoV S glycoprotein, …); experiment: as above
[22] = biological target: T7, BV2561 (recombinant CoV S glycoprotein, …); experiment: as above
[23] = biological target: T8, BV2562 (recombinant CoV S glycoprotein, …); experiment: as above
[24] = biological target: BV2589 (recombinant CoV S glycoprotein, BQ.1.1) (SARS-CoV-2, UniProt P0DTC2 14-1273); experiment: as above

B1: 322.3 (antibody, V domains shown)
VH: RVQLQQSGPELVKPGASVTISCKASGYIFTSDYIHWVKQRPGQGPEWIGWIYPGNINTKYNEKFKGKATLTADKSSSTAYMQLSSLTSEDSAVYFCARDDGNLYYYAMDYWGQGTSVTVSS
VL: NIVLTQSPASLAVSLGQRATISCRASESVDSYGSSFMHWYQQKPGQPPKLLIYLASNLESGVPARFSGSGSRTDFTLTIDPVEADDAATYYCQQNNEDPRTFGGGTKLEIK
[1]
  EC50: 0.195 µg/mL
[2]
  EC50: 0.045 µg/mL
[3]
  EC50: 0.225 µg/mL
[4]
  Kd: 1.69 pM
  kon: 138000 M⁻¹ s⁻¹
[5]
  Kd: 57.1 pM
[6]
  Kd: 78.7 pM
[7]
  Kd: 6.48 pM
  koff: 1.24e-07 s⁻¹
  kon: 20100 M⁻¹ s⁻¹
[8]
  Kd: 107 pM
  koff: 1.26e-07 s⁻¹
  kon: 1180 M⁻¹ s⁻¹
[9]
  Kd: 78.7 pM
[10]
  Kd: 87.4 pM
[11]
  Kd: 40.5 pM
[12]
  Kd: 13.2 pM
  koff: 1.46e-07 s⁻¹
  kon: 11100 M⁻¹ s⁻¹
[13]
  Kd: < 1 pM
[14]
  Kd: 41.5 pM
  koff: 1.22e-07 s⁻¹
  kon: 2690 M⁻¹ s⁻¹
[15]
  Kd: 4.47 pM
[16]
  Kd: < 1 pM
[17]
  IC50: 0.493 µg/mL
[18]
  IC50: 0.224 µg/mL
[19]
  IC50: 0.779 µg/mL
[20]
  IC50: 0.543 µg/mL
[21]
  IC50: 0.866 µg/mL
[22]
  IC50: > 5 µg/mL
[23]
  IC50: 0.411 µg/mL
[24]
  IC50: 0.265 µg/mL

B2: 425.6 (antibody, V domains shown)
VH: VQLKQSGPSLVQPSQSLSITCTVSGFSLTSYGIHWVRQSPGKGLEWLGVIWRGGSTDYNAAFMSRLTITKDNSKSQVFFKMNSLQADDTAIYYCATHTEGDDVDYWGQGTSVTVSS
VL: QIVLTQSPAIMSVSPGEKVTMTCSASSTMSFMYWYQQKPGSSPRLLIYDTSNLASGVPVRFSGSGSGTSYSLTISRVEAEDAATYYCQQWNTYPLTFGAGTKLELKR
[1]
  EC50: 0.028 µg/mL
[2]
  EC50: 0.014 µg/mL
[3]
  EC50: 0.034 µg/mL
[4]
  Kd: 4890 pM
  koff: 0.00123 s⁻¹
  kon: 272000 M⁻¹ s⁻¹
[5]
  Kd: < 1 pM
[6]
  Kd: < 1 pM
[7]
  Kd: < 1 pM
[8]
  Kd: < 1 pM
[9]
  Kd: < 1 pM
[10]
  Kd: 3.91 pM
  koff: 1.54e-07 s⁻¹
  kon: 41300 M⁻¹ s⁻¹
[11]
  Kd: 3.69 pM
  koff: 1.37e-07 s⁻¹
  kon: 38200 M⁻¹ s⁻¹
[12]
  Kd: 1.76 pM
  koff: 1.5e-07 s⁻¹
  kon: 85900 M⁻¹ s⁻¹
[13]
  Kd: < 1 pM
[14]
  Kd: 3.81 pM
  koff: 1.51e-07 s⁻¹
  kon: 40200 M⁻¹ s⁻¹
[15]
  Kd: < 1 pM
  koff: < 1e-07 s⁻¹
  kon: 46900 M⁻¹ s⁻¹
[16]
  Kd: < 1 pM
[17]
  IC50: > 3 µg/mL
[18]
  IC50: 0.032 µg/mL
[19]
  IC50: 0.028 µg/mL
[20]
  IC50: 0.037 µg/mL
[21]
  IC50: 0.028 µg/mL
[22]
  IC50: > 5 µg/mL
[23]
  IC50: 0.071 µg/mL
[24]
  IC50: > 3 µg/mL

B3: 35.13 (antibody, V domains shown)
VH: QVQLQQSGAELGKPGASVKLSCRASGYTFTRYYIYWVKQRPGQGLEWIGEINPSNGDTHFNEKFKTKATLTVDKSSSSAHIHLTSLTSEDSAVYYCSIHAYSFDFWGQGTTLTVSS
VL: EIQMTQSPSSMSASLGDRITITCQATQDIVKNLNWYQQKPGKPPSFLIYHATELAKGVPSRFSGSGSGSDYSLTISNLESEDFADYYCLQFYDFPFTFGAGTKLELKR
[1]
  EC50: 0.053 µg/mL
[2]
  EC50: 1.03 µg/mL
[3]
  EC50: 0.104 µg/mL
[4]
  Kd: 1.93 pM
  kon: 142000 M⁻¹ s⁻¹
[5]
  Kd: 5.29 pM
  koff: 1.67e-07 s⁻¹
  kon: 33000 M⁻¹ s⁻¹
[6]
  Kd: 3.22 pM
[7]
  Kd: 15.2 pM
  koff: 1.54e-07 s⁻¹
  kon: 10500 M⁻¹ s⁻¹
[8]
  Kd: 19.8 pM
  koff: 1.7e-07 s⁻¹
  kon: 9090 M⁻¹ s⁻¹
[9]
  Kd: 3.73 pM
  koff: 1.42e-07 s⁻¹
  kon: 41900 M⁻¹ s⁻¹
[10]
  Kd: 9.82 pM
  koff: 1.52e-07 s⁻¹
  kon: 15500 M⁻¹ s⁻¹
[11]
  Kd: 8.43 pM
  koff: 1.61e-07 s⁻¹
  kon: 19100 M⁻¹ s⁻¹
[12]
  Kd: 7.23 pM
  koff: 1.21e-07 s⁻¹
  kon: 17600 M⁻¹ s⁻¹
[13]
  Kd: < 1 pM
  koff: < 1e-07 s⁻¹
  kon: 22700 M⁻¹ s⁻¹
[14]
  Kd: 7.87 pM
  koff: 1.14e-07 s⁻¹
  kon: 15000 M⁻¹ s⁻¹
[15]
  Kd: 6.87 pM
[16]
  Kd: < 1 pM
  koff: < 1e-07 s⁻¹
  kon: 38500 M⁻¹ s⁻¹
[17]
  IC50: 0.097 µg/mL
[18]
  IC50: 0.126 µg/mL
[19]
  IC50: > 3 µg/mL
[20]
  IC50: > 5 µg/mL
[21]
  IC50: 0.177 µg/mL
[22]
  IC50: 0.169 µg/mL
[23]
  IC50: > 5 µg/mL
[24]
  IC50: > 3 µg/mL
